From patent US20050124678 (Paratek Pharmaceuticals, Inc., published 2005)

Key:
[1] = target: Rob (Escherichia coli, UniProt P0ACI0 SEQ:1-289)
[2] = target: T1, MarA (Escherichia coli, UniProt P0ACH5 P0ACH5:1-127)
T1 sequence: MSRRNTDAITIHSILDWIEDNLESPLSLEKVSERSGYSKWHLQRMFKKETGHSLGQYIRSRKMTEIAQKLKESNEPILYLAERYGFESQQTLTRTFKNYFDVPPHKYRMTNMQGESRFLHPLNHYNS

[3] = target: SoxS (Escherichia coli, UniProt P0A9E2 P0A9E2:1-107)

Measured: binding result

Chain of Rob (P0ACI0 whole entry): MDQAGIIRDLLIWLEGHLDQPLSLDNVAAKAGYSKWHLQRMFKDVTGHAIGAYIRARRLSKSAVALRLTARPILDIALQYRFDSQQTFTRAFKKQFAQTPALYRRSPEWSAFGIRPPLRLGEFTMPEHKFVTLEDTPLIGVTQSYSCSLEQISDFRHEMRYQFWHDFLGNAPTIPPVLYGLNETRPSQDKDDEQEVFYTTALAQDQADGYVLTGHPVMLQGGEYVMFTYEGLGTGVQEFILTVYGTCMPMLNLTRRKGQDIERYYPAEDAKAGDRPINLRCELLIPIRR
Chain of SoxS (P0A9E2 whole entry, one chain of several): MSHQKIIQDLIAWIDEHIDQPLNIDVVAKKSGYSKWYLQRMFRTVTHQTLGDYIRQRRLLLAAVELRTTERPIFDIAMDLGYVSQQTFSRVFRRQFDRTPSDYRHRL

B1: biotinylated target DNA (SEQ ID NO. 5) (dsDNA)
DNA 1: CCGATTTAGCAAAACGTGGCATCGGTC
DNA 2: GACCGATGCCACGTTTTGCTAAATCGG
binds: all assays above
